Data published in publication PMC6069116.

Target: HrpG/HrpV complex from Erwinia amylovora, separately produced (Erwinia amylovora)
Assay: SEC-MALS

HrpJ from Erwinia amylovora, separately produced and purified (natural protein)
stoichiometry N (HrpG:HrpV:HrpJ): 1
